The text below walks through data of US11541133B2, “Treatment of cancer cells overexpressing somatostatin receptors using ocreotide derivatives chelated to radioisotopes” (RADIOMEDIX INC., priority 2017, dated 2023).

Each structure is given as a SMILES string.

For one data set, the system named is AR42J tumors. Put plainly: Combination therapy efficacy study with ADRUCIL in AR42J xenograft athymic nude mice (FIGS. 42-43). Format: in vivo. As to conditions: ADRUCIL alone, 15 mg/kg once weekly, nine injections. The procedure:
Athymic nude mice are given AR42J tumors and allowed to grow until tumors reach about 300 mm^3. Mice in treatment groups are injected with 100 μl of 15 mg/kg ADRUCIL® once weekly for a total of nine injections. 10 μCi of ^212Pb-DOTAMTATE is given at either 2 week or 3 week intervals for a total of 3 treatments. The ^212Pb-DOTAMTATE is given within 24 hours after an ADRUCIL® treatment. 10 μCi per 4.1 ng peptide is used, and the cumulative injection dose is 30 μCi. The animals are monitored daily, and calipered and weighed 3 times per week. The animals are sacrificed when termination criteria are met.

Data set [1] in a line: in vivo. The arrangement: species or system mice. The settings on record: CD-1, mouse, iv, 10 uCi, total radioactivity. The procedure: CD-1 mice are injected with 10 μCi of ^212Pb-DOTAMTATE as part of a biodistribution study. Blood is collected at 15 minutes; 1 hour and 4 hours post injection. Body weights determined by taking the average of 10 CD-1 mice at 7 weeks old, the age of the mice in this study and using this weight, blood volume is estimated using the equation by Lee and Blaufox (1985). % ID in blood mice is then calculated for 5 mice per group.

For data set [2] the following is noted: mouse, in vivo. The source says: Signs of acute toxicity are examined in a non-GLP repeat dose study to compare single administration vs fractionation (described below). This study is designed based on observations made in athymic nude mice. […] This observation is correlated with the GLP findings that hematological toxicity in the surviving animals from the higher dose groups is recoverable within a month. As renal and hepatic toxicity is cumulative a single dose treatment vs multiple doses leading to the same cumulative dose should be similar (Barendsen, 1964). Fractionated administration of radioactivity three weeks apart compared to a single injection had very similar toxicity profile.

Data set [3] in a line: Repeat-dose (fractionated vs single dose) toxicity study in tumor-free CD-1 mice (FIGS. 37-39). Format: in vivo. The procedure: Female, tumor free CD-1 mice are injected with one dose of 40 μCi ^212Pb-DOTAMTATE, 2 doses of 20 μCi ^212Pb-DOTAMTATE or three doses of 15 μCi ^212Pb-DOTAMTATE. Animals are given three weeks between doses for these who received multiple treatments. Animals are weighed three times per week and monitored daily for signs of termination criteria (15% weight loss over 2 days or 20% loss from initial weight, lack of grooming over 5 days, lethargy/weakness over 3 days, reduced motility, hunched back, diarrhea, hypothermia). Blood for hematological analysis is collected weekly.

Data set [4] is described as follows: Non-GLP dose range finding (single dose acute toxicity) study in athymic nude mice (FIGS. 35-36). Format: in vivo. The procedure: Female athymic nude mice (˜20 g) are injected with a single dose of 10 μCi, 20 μCi, 40 μCi or 60 μCi of ^212Pb-DOTAMTATE or control PBS intravenously. Five animals are assigned per treatment group. Animals are weighed three times per week and monitored daily for signs of termination criteria (15% weight loss over 2 days, lack of grooming over 5 days, lethargy/weakness over 3 days, reduced motility, hunched back, diarrhea, hypothermia). The study is concluded after 4 weeks.

Data set [5] can be described thus: Dosimetry and bio-distribution of ^203Pb-DOTAMTATE in patients with somatostatin expressing neuroendocrine tumors (SPECT-CT). It is filed as in vivo, human. The procedure: Total of 6 patients are enrolled in the first-in-human open-label, single-dose, dosimetry and bio-distribution of ^203Pb-DOTAMTATE.
All patients (1 female and 5 male) receive an average dose of 4.94 (4.66-5.26) mCi of ^203Pb-DOTAM-TATE and undergo 1 hour, 4 hour, 24 hour and 48 hour post injection SPECT-CT scans. Ethnicity of all 6 patients is Caucasian.
Pharmacokinetic data from ^203Pb-DOTAMTATE imaging are used to calculate the absorbed dose from ^203Pb-DOTAMTATE imaging. The data is then extrapolated to calculate the expected tissue absorbed doses following the administration of ^212Pb-DOTAMTATE for future Targeted Alpha particle Therapy (TAT).

The nature of data set [6]: in vivo. The arrangement: species or system mice. The procedure:
Female CD-1 mice (˜20 g) are injected with a single dose of ^212Pb-DOTAMTATE. Specifically, 10 μCi of ^212Pb-DOTAMTATE is diluted in PBS and 100 μl is administered to the mice via intravenous injection. The animals are sacrificed at predetermined time points of 15 minutes, 1 hour, 4 hours and 24 hours and 48 hours post drug injection. Tissues are collected from each animal and evaluated for amount of radioactive material in each organ by auto gamma counter. Specifically, organs are harvested, weighed and transferred to polypropylene tubes. The tubes are placed in a calibrated Wizard2 γ-counter (PerkinElmer, Shelton, Conn.) and counted for three minutes (204-274 keV). A standard consisting of one-twentieth of the injection volume is counted with each time point. The background is automatically subtracted from the counts. The standard is also used for decay correction. % ID/g is calculated for each organ collected.

Setting [7] is: female, CD-1, mouse, iv, 10 uCi, total radioactivity.

Protocol for AR42J cells: Thirty-thousand (3×10^4) AR42J cells are grown in the wells of a 96 well plate for 2 days. Cells are then incubated for 4 hours with increasing doses of ^212Pb-DOTAMTATE ranging from 0 nCi/ml to 800 nCi/ml. Eight wells per group are treated. Cells are washed with PBS to remove drug and then fresh media is introduced. Cells are allowed to incubate for 6 days at 37° C. Cells are then rinsed and incubated with fluorescein diacetate for 30 minutes and read with a fluorimeter at 485/535 nm. Percentage of viable cells is calculated based on untreated cells as a control.

On to `O=c1[nH]cc(F)c(=O)[nH]1` [ADRUCIL®], for which the median survival with AR42J tumors is on record as 2.4 weeks.

By tissue uptake is commonly meant the share of the injected amount in each gram of the tissue. `C[C@@H](O)[C@H](NC(=O)[C@@H]1CSSC[C@H](NC(=O)[C@@H](Cc2ccccc2)NC(=O)CN2CCN(CC(N)=O)CCN(CC(N)=O)CCN(CC(N)=O)CC2)C(=O)N[C@@H](Cc2ccc(O)cc2)C(=O)N[C@H](Cc2c[nH]c3ccccc23)C(=O)N[C@@H](CCCCN)C(=O)N[C@@H]([C@@H](C)O)C(=O)N1)C(=O)O` [^212Pb-DOTAMTATE, ((4R,7S,10S,13R,16S,19R)-13-((1H-indol-3-yl)methyl)-10-(4-aminobutyl)-16-(4-hydroxybenzyl)-7-((R)-1-hydroxyethyl)-6,9,12,15,18-pentaoxo-19-((R)-3-phenyl-2-(2-(4,7,10-tris(2-amino-2-oxoethyl)-1,4,7,10-tetraazacyclododecan-1-yl)acetamido)propanamido)-1,2-dithia-5,8,11,14,17-pentaazacycloicosane-4-carbonyl)-L-threonine chelated to M, metal not drawn]: in the data set “in vivo [1]”, the tissue uptake dose at 1 h was 1.8 %ID and the tissue uptake dose at 4 h came out at 0.1 %ID. Further, the “toxicity compared with single 40 μCi dose” value in data set [2] was “same toxicity profile”. This compound displayed an animals that died in data set [3] (1×40 μCi, nine days after injection) of approximately 40%. In addition, the animals that died in data set [3] (2×20 μCi, within four weeks of the study, one week after the second dose) stood at 50%. Also, the mortality result in data set [3] (3×15 μCi, three weeks between doses) is “no mortality”. In addition, the “animals surviving until the end of the four-week study” value in data set [4] (single dose 10 μCi and 20 μCi groups) is listed as 100%. In addition, the “time of death of all animals” value in data set [4] (single dose 60 μCi) stood at 7 days post injection. Besides, in data set [5] (human, in vivo), the “cumulative dose corresponding to the maximum theoretical absorbed dose estimate to kidneys of 23 Gy” value is listed as 32.7 mCi. For the same compound, in data set [5] (patients, dosimetry analysis, 3 cycles), the “dose per therapy cycle corresponding to the maximum theoretical absorbed kidney dose of 23 Gy” value amounted to 10.9 mCi. Moreover, the cytotoxic effect entry in the data set with AR42J cells is on record as “complete cell death”. For the same compound, in the data set “in vivo [6]” (setting [7]), the tissue uptake at 1 h is approximately 30 %ID/g and the tissue uptake at 24 h was approximately 10 %ID/g. Further, in “in vivo [6]” (mouse), the “percent-injected dose per gram, all organs with the exception of the kidneys” value is “less than 10%”.
